Reference: the supplement of paper PMC7877785
± gives the uncertainty stated by the source.

Assay: self-splicing fitness, log relative to wild type (ln ratio); higher = more splicing; Tetrahymena group I intron in knt gene, E. coli kanamycin selection, DiMSum; sequences stand for … in CUCUCU…GGAGGGAAAAGUUAUCAGGCAUGCACCUGGUAGCUAGUCUUUAAACCAAUAGAUUGCAUCGGUUUAAAAGGCAAGACCGUCAAAUUGCGGGAAAGGGGUCAACAGCCGUUCAGUACCAAGUCUCAGGGGAAACUUUGAGAUGGCCUUGCAAAGGGUAUGGUAAUAAGCUGACGGACAUGGUCCUAACCACGCAGCCAAGUCCUAAGUCAACAGAUCUUCUGUUGAUAUGGAUGCAGUUCACAGACUAAAUGUCGGUCGGGGAAGAUGUAUUCUUCUCAUAAGAUAUAGUCGGACCUCUCCUUAAUGGGAGCUAGCGGAUGAAGUGAUGCAACACUGGAGCCGCUGGGAACUAAUUUGUAUGCGAAAGUAUAUUGAUUAGUUUUGGAGUACUCGUGGUCG
In short: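 Six replicate transformations of E. coli BL21(DE3) with a pET-22b(+) library were grown overnight at 37°C or 30°C. The library randomised all eight P1ex-region intron nucleotides, the intron lying in the knt kanamycin-resistance gene, and plates were LB agar with or without 25 μg/mL kanamycin plus 100 μg/mL carbenicillin, 50 μM IPTG and 0.2% rhamnose. Pooled colonies were amplicon-sequenced on an Illumina HiSeq 2500, and fitness is the DiMSum error-weighted combination of wild-type-normalised replicate fold changes, kanamycin versus none.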

Sequence | self-splicing fitness (ln) (30 °C) | self-splicing fitness (ln) (37 °C)
CCAGAGCAAUAUUACGAAAU | -3.47 ± 0.23 | -2.93 ± 0.25
CCGCAGCAAUAUUACGGUCC | -3.73 ± 0.23 | -1.99 ± 0.23
UGGAAGCAAUAUUACGGUAA | -1.48 ± 0.18 | -0.845 ± 0.14
UAUGAGCAAUAUUACGGGAG | -1.86 ± 0.19 | -2.95 ± 0.24
UCCUAGCAAUAUUACGUGGG | -3.24 ± 0.15 | -2.5 ± 0.2
GCUAAGCAAUAUUACGACUA | -1.7 ± 0.19 | -0.865 ± 0.23
AACUAGCAAUAUUACGGUCU | -0.472 ± 0.055 | 0.465 ± 0.07
UUCAAGCAAUAUUACGCGUG | -3.38 ± 0.17 | -2.13 ± 0.17
UAUAAGCAAUAUUACGCUGA | -1.96 ± 0.22 | -1.53 ± 0.23
GUAGAGCAAUAUUACGUCGA | -3.08 ± 0.17 | -0.919 ± 0.2
CCCGAGCAAUAUUACGGGCG | -3.03 ± 0.19 | -2.47 ± 0.25
AGUCAGCAAUAUUACGGAGG | -2.93 ± 0.13 | -1.31 ± 0.15
GGGUAGCAAUAUUACGGCGG | -2.35 ± 0.24 | -2.12 ± 0.28
UCUUAGCAAUAUUACGGGUA | -1.46 ± 0.076 | -0.741 ± 0.084
UUUUAGCAAUAUUACGCGGU |  | -1.53 ± 0.45
CCAUAGCAAUAUUACGAUUU | -3.31 ± 0.2 | -2.37 ± 0.23
GGUUAGCAAUAUUACGGGGA | -2.05 ± 0.25 | -2.49 ± 0.29
CCCUAGCAAUAUUACGAAGU | -4.34 ± 0.28 | -2.89 ± 0.27
UUGGAGCAAUAUUACGUUAU | -2.79 ± 0.28 | -0.885 ± 0.26
CUUUAGCAAUAUUACGAUGA | -3.2 ± 0.25 | -2.01 ± 0.18
GCUCAGCAAUAUUACGUGAC | -1.88 ± 0.092 | -1.03 ± 0.11
UCUUAGCAAUAUUACGACAA | -2.45 ± 0.32 | -1.18 ± 0.29
GAAAAGCAAUAUUACGAAAA | -2.25 ± 0.22 | -2.42 ± 0.17
UUGCAGCAAUAUUACGUACA | 0.118 ± 0.11 | -0.0402 ± 0.13
CCAUAGCAAUAUUACGUGAG | -0.355 ± 0.045 | 0.00486 ± 0.066
CCUUAGCAAUAUUACGUUGG | -3.71 ± 0.21 | -3.32 ± 0.26

Sequence | self-splicing fitness (ln) (30 °C) | self-splicing fitness (ln) (37 °C)
AAGUAGCAAUAUUACGACCG | -1.89 ± 0.086 | -1.35 ± 0.12
UGGUAGCAAUAUUACGAAUA | -0.911 ± 0.17 | -1.17 ± 0.16
GCUCAGCAAUAUUACGAAGA | -0.583 ± 0.12 | -0.863 ± 0.14
AUAAAGCAAUAUUACGGCCU | 0.372 ± 0.11 | 0.382 ± 0.14
UUAUAGCAAUAUUACGCUAC |  | -1.33 ± 0.45
GUUGAGCAAUAUUACGCUUU | -3.95 ± 0.48 | -2.45 ± 0.26
UUAUAGCAAUAUUACGUUCG | -0.942 ± 0.091 | 0.154 ± 0.14
AAGAAGCAAUAUUACGGGUA | -2.35 ± 0.16 | -0.422 ± 0.12
UGCGAGCAAUAUUACGACGA | -1.13 ± 0.13 | -0.458 ± 0.13
CGUAAGCAAUAUUACGGUCG | -0.611 ± 0.12 | 0.212 ± 0.14
AAACAGCAAUAUUACGAGAG | -2.76 ± 0.18 | -2.91 ± 0.16
AACCAGCAAUAUUACGUUCU | -1.15 ± 0.043 | -0.678 ± 0.053
ACUAAGCAAUAUUACGCUGU | -2.77 ± 0.17 | -2.58 ± 0.35
AGUUAGCAAUAUUACGUUGA | -2.03 ± 0.31 | -2.02 ± 0.39
AAAUAGCAAUAUUACGCGUC | -2.19 ± 0.16 | -0.755 ± 0.19
CAAAAGCAAUAUUACGACGU | -0.652 ± 0.066 | 0.0132 ± 0.08
GGCCAGCAAUAUUACGUGGU | -3.49 ± 0.21 | -1.76 ± 0.2
AUCUAGCAAUAUUACGUCCC | -0.434 ± 0.3 | -0.129 ± 0.27
CGCCAGCAAUAUUACGCCCU | -1.93 ± 0.14 | -0.637 ± 0.13
CUGUAGCAAUAUUACGUACA | -3.41 ± 0.27 | -1.65 ± 0.18
GCCCAGCAAUAUUACGCGAC | -2.9 ± 0.17 | -1.55 ± 0.14
CGAAAGCAAUAUUACGAUAG | -0.598 ± 0.074 | 0.569 ± 0.1
UUACAGCAAUAUUACGCCGG | -0.726 ± 0.094 | -0.416 ± 0.13
UGUAAGCAAUAUUACGGUUA | -0.297 ± 0.091 | -0.0116 ± 0.098
UCGCAGCAAUAUUACGAGAA | -1.41 ± 0.34 | -0.949 ± 0.21
AUUGAGCAAUAUUACGGGUC | -3.34 ± 0.39 | 

Sequence | self-splicing fitness (ln) (30 °C) | self-splicing fitness (ln) (37 °C)
CGGUAGCAAUAUUACGAAAC |  | -2.72 ± 0.27
GUUCAGCAAUAUUACGCAGA | -1.72 ± 0.2 | -1.3 ± 0.17
CCCGAGCAAUAUUACGUGCG | -4.04 ± 0.21 | -2.82 ± 0.21
AGUUAGCAAUAUUACGUGCC | -0.977 ± 0.12 | -0.145 ± 0.16
CGUAAGCAAUAUUACGGGUU | -3.63 ± 0.17 | -2.98 ± 0.29
GAUCAGCAAUAUUACGAAGU | -1.17 ± 0.12 | -0.265 ± 0.13
GCGGAGCAAUAUUACGUUUA |  | -2.33 ± 0.37
GCGUAGCAAUAUUACGCACA |  | -1.71 ± 0.47
GGAGAGCAAUAUUACGUCUU | -4.08 ± 0.28 | -3.23 ± 0.38
AGGCAGCAAUAUUACGCUGC |  | -2.5 ± 0.38
GAAGAGCAAUAUUACGUUUG | -4.05 ± 0.2 | -2.8 ± 0.23
AACGAGCAAUAUUACGGGAC | -3.37 ± 0.22 | -3.61 ± 0.46
UAACAGCAAUAUUACGCAGG | -2.5 ± 0.09 | -0.402 ± 0.08
GAUUAGCAAUAUUACGCGGC | -3.08 ± 0.38 | -2 ± 0.35
GUGAAGCAAUAUUACGCACA | 0.0998 ± 0.15 | 0.512 ± 0.18
UGUUAGCAAUAUUACGCGAG | -3.15 ± 0.25 | -2.42 ± 0.19
ACGGAGCAAUAUUACGUACG | -2.38 ± 0.45 | 
AGUAAGCAAUAUUACGCGCG | -1.05 ± 0.21 | -0.403 ± 0.21
CUUUAGCAAUAUUACGGGGA | -2.88 ± 0.19 | -1.38 ± 0.17
CGGAAGCAAUAUUACGAACA | -1.18 ± 0.12 | -0.826 ± 0.13
AUAUAGCAAUAUUACGGCCG | -1.15 ± 0.2 | -0.566 ± 0.25
AUGGAGCAAUAUUACGUUAU | -2.96 ± 0.13 | -1.77 ± 0.12
CUUCAGCAAUAUUACGGUAC | -3.21 ± 0.35 | -2.02 ± 0.33
UGCAAGCAAUAUUACGCUGC | -3.62 ± 0.29 | -2.4 ± 0.3
UGCGAGCAAUAUUACGACCU | -0.697 ± 0.18 | -0.146 ± 0.2
